Results: PMC9998874, “Deacetylation induced nuclear condensation of HP1γ promotes multiple myeloma drug resistance” (Nature Communications, 2023)
Each block holds one binder with its values, some of them ahead of it.

Experiments:
Conditions in all cases: both partners purified
purified HDAC1-flag = biological target: T1, purified HDAC1-flag (UniProt Q13547 1-482); experiment: pull-down; GST pull-down in vitro: GST-tagged HP1γ held, purified HDAC1-flag as input
T1 construct: histone deacetylase 1 with a flag tag; also called HDAC1-flag fusion protein; flag-HDAC1; source: HEK293T, expressed, purified

GST-MDC1-mC-IDR1 = biological target: T2, GST-MDC1-mC-IDR1 (UniProt Q14676 143-339); experiment: pull-down; GST pull-down in vitro: GST-tagged mCherry-MDC1-IDR1 or -IDR2 held, purified HP1γ-GFP
T2 construct: MDC1 intrinsically disordered region 1 (IDR1), residues 143-339; In the droplet and turbidity assays the protein is called mCherry-MDC1-IDR1; also called GST-tagged-mCherry-MDC1-IDR1; MDC1-IDR1; source: purified
T2 sequence (looked up): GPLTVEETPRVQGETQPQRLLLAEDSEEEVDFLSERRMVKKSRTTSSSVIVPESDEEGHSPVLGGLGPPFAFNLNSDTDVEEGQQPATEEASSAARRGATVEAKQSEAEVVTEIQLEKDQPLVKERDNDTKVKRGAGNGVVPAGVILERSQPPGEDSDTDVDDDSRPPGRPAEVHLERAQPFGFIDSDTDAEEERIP

GST-MDC1-mC-IDR2 = biological target: T3, GST-MDC1-mC-IDR2 (UniProt Q14676 354-539); experiment: as above
T3 construct: MDC1 intrinsically disordered region 2 (IDR2), residues 354-539; In the droplet and turbidity assays the protein is called mCherry-MDC1-IDR2; also called GST-tagged-mCherry-MDC1-IDR2; MDC1-IDR2; source: purified
T3 sequence (looked up): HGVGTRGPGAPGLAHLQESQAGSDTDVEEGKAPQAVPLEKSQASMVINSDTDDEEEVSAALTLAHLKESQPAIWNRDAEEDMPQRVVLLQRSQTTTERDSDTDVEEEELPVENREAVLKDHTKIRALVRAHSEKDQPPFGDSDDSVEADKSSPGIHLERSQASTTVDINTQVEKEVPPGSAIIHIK

T1 sequence (Q13547 whole entry, the tested form may be a part): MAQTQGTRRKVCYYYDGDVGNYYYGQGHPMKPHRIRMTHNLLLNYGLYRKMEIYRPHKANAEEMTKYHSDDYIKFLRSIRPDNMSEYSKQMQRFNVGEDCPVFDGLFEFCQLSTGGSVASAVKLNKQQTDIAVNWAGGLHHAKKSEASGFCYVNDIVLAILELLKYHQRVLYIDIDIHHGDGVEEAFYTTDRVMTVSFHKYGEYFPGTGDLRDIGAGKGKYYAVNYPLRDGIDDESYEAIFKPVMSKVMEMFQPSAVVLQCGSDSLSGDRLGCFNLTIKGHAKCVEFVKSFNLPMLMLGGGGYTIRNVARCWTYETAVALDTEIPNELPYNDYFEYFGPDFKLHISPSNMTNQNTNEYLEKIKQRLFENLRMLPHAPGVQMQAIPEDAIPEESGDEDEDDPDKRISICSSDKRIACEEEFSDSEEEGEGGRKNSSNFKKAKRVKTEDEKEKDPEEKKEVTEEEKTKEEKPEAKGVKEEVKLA

- binding result (purified HDAC1-flag): binds
B1: GST-fusion HP1γ protein (natural protein)
chain: not shown
notes: HP1γ (CBX3) fused to GST; Probably made in E. coli BL21 as the other GST fusions of the methods (surmised); also called GST-HP1γ; GST-tagged-HP1γ; source: purified GST-fusion protein ('in vitro expression')

- binding result (GST-MDC1-mC-IDR1): binds
- binding result (GST-MDC1-mC-IDR2): binds
B2: purified HP1γ-GFP (natural protein)
chain: not shown
notes: HP1γ (CBX3) fused to GFP; the HP1γ-GFP of the pull-down is probably the full-length one (surmised); also called GFP-HP1γ; source: E. coli BL21, purified (glutathione agarose, released by HRV 3C protease)
